Test results: patent US20250235516A1 (UNIVERSITY OF SOUTH FLORIDA, published 2025)
Each block holds one binder with its values, some of them ahead of it.

Columns and labels:
[1] = target: Matrix metalloproteinase-2 (UniProt P08253 110-465, limits assumed); assay: cell-based or functional assay
neutrophil elastase = target: T1, neutrophil elastase (human, UniProt P08246 30-247, limits assumed); assay: cell-based or functional assay
T1 sequence (looked up): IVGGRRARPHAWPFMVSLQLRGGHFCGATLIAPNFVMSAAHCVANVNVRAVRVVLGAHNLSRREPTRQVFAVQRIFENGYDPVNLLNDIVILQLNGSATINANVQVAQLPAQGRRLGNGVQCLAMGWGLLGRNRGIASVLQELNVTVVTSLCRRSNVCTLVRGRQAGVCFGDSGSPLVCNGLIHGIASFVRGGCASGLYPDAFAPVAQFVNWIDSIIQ

Sequence of Matrix metalloproteinase-2 (P08253 110-465 limits assumed): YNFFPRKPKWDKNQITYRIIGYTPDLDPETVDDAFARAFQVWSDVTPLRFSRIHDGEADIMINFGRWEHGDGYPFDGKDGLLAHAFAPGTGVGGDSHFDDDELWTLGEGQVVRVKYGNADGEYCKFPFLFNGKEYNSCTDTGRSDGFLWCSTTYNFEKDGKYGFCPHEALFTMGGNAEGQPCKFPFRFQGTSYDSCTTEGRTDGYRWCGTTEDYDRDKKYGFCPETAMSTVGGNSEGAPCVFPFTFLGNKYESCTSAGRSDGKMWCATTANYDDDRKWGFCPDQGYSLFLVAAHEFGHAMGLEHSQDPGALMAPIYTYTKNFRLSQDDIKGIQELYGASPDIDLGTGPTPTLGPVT

IC50 of MMP-2 inhibition (kinetic colorimetric substrate assay) [1]: 40 µg/mL
IC50 of NE inhibition (kinetic colorimetric substrate assay) (neutrophil elastase): 0.00085 µg/mL
B1: PMPD2-L10FLAG-APP-IP (designed binder)
chain: EEKCTPGQVKQQDCNTCTCTPTGVWGCTLMGCQPAVPGVGVPGVGVPGLGVPGVGVPGVGVPGVGVPGVGVPGLGVPGVGVPGVGVPGVGVPGVGVPGLGVPGVGVPGVGVPGVGVPGVGVPGLGVPGVGVPGVGVPGVGVPGVGVPGLGVPGVGVPGVGVPGVGVPGVGVPGLGVPGVGVPGVGVPGVGVPGVGVPGLGVPGVGVPGVGVPGVGVPGVGVPGLGVPGVGVPGVGVPGVGVPGVGVPGLGVPGVGVPGVGVPGVGVPGVGVPGLGVPGVGVPGVGDYKDDDDKISYGNDALMP

IC50 of MMP-2 inhibition (kinetic colorimetric substrate assay) [1]: 50 µg/mL
% inhibition of NE near the IC50 of the dual inhibitor (neutrophil elastase): 8.4%
B2: APP-IP-L10FLAG (designed binder)
chain: ISYGNDALMPVPGVGVPGVGVPGLGVPGVGVPGVGVPGVGVPGVGVPGLGVPGVGVPGVGVPGVGVPGVGVPGLGVPGVGVPGVGVPGVGVPGVGVPGLGVPGVGVPGVGVPGVGVPGVGVPGLGVPGVGVPGVGVPGVGVPGVGVPGLGVPGVGVPGVGVPGVGVPGVGVPGLGVPGVGVPGVGVPGVGVPGVGVPGLGVPGVGVPGVGVPGVGVPGVGVPGLGVPGVGVPGVGVPGVGVPGVGVPGLGVPGVGVPGVGDYKDDDDK

IC50 of NE inhibition (kinetic colorimetric substrate assay) (neutrophil elastase): 0.00708 µg/mL
B3: PMPD2-L10FLAG (designed binder)
chain: EEKCTPGQVKQQDCNTCTCTPTGVWGCTLMGCQPAVPGVGVPGVGVPGLGVPGVGVPGVGVPGVGVPGVGVPGLGVPGVGVPGVGVPGVGVPGVGVPGLGVPGVGVPGVGVPGVGVPGVGVPGLGVPGVGVPGVGVPGVGVPGVGVPGLGVPGVGVPGVGVPGVGVPGVGVPGLGVPGVGVPGVGVPGVGVPGVGVPGLGVPGVGVPGVGVPGVGVPGVGVPGLGVPGVGVPGVGVPGVGVPGVGVPGLGVPGVGVPGVGVPGVGVPGVGVPGLGVPGVGVPGVGDYKDDDDK
